Results reported in paper PMC5038981 (DNA repair, 2015).

Target: T1, GST-tagged Rad27 (S. cerevisiae, UniProt P26793 1-382)
T1 sequence (looked up): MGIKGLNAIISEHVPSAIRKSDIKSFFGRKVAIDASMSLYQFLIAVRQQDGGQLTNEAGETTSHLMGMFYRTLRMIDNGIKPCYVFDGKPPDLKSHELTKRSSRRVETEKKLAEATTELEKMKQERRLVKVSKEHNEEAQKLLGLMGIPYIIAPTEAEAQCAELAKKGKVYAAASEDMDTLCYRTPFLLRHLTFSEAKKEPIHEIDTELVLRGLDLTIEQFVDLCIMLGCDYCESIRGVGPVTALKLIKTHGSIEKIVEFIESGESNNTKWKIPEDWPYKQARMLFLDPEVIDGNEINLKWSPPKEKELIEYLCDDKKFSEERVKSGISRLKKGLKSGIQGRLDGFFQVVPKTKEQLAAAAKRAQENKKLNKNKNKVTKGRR
Assay: pull-down

B1: his-tagged Nej1 C-terminal fragment (residues 129-343) (domain or fragment, S. cerevisiae, UniProt Q06148 129-342, looked up)
chain: MFYMILQSLCMLLLKLVNLSTQYHYVQRDILNEKQKCLDFLLISLRDLDGGSKVISQWAPENSKNYESLQQCTDDDIIKKLLHKGKFQHQEFLADSLKTLLSLRNKFQDVSRFEESGELNKKERVRFPAVNHFYNDDFELQADPTNEARPNSRGKIKPKTDFKPKSRESSTSSQLRLENFSESEATPEKTKSSSSLVEEYPQKKRKFGKVRIKN
**Q.** Does B1 bind?
**A.** Result: binds
